Results reported in PMC9712102.
pKd: −log10 of the molar value.

Tests used:
[1] = target: Gp57, purified (phage SECΦ27); assay: SEC-MALS; co-purified CapRel^SJ46–Gp57 complex at 5 mg ml^−1; 50 mM HEPES pH 7.5, 500 mM KCl, 500 mM NaCl, 10 mM MgCl2, 1 mM TCEP, 0.002% mellitic acid
[2] = target: Gp57 (L114P I115F), purified (phage SECΦ27); assay: ITC; CapRel^SJ46 (or variant) at 150 μM in the syringe titrated into Gp57 (or variant) at 10 μM in the cell; 25 °C; 50 mM HEPES pH 7.5, 500 mM KCl, 500 mM NaCl, 150 mM imidazole, 10 mM MgCl2, 1 mM TCEP, 0.002% mellitic acid
[3] = target: Gp57, purified (phage SECΦ27); assay: as above
CapRel^SJ46–Flag = assay: immunoprecipitation followed by mass spectrometry
[4] = target: CapRel^SJ46, purified full-length; assay: ITC; conditions: CapRelSJ46 titrated into Gp57(L114P I115F)

Substance “CapRel^SJ46(Y155A), co-purified with Gp57 (natural protein)” has a stoichiometry N [1] of 1.
“CapRel^SJ46, purified full-length (natural protein)” was tested, and the fold decrease in affinity against wild-type Gp57 [2] was greater than 60 fold and the stoichiometry N [3] was 1.
For “Gp57, major capsid protein of SECΦ27, made by wild-type phage during infection L114P”, the response (SC(Gp57)/SC(CapRelSJ46)) (CapRel^SJ46–Flag; 40 min after infection, bar = mean of 2 biological replicates, parent: est. 0.33, read off a plot) was 0.07, the response (spectral counts (SC)) (CapRel^SJ46–Flag; replicate1, 15 min after infection, CapRelSJ46 SC 276 (L114P mutant), 286 (WT), parent: 12) was 0 and the response (spectral counts (SC)) (CapRel^SJ46–Flag; replicate1, 40 min after infection, CapRelSJ46 SC 251 (L114P mutant), 217 (WT), parent: 64) was 25. For the same substance, the response (spectral counts (SC)) (CapRel^SJ46–Flag; replicate2, 15 min after infection, CapRelSJ46 SC 145 (L114P mutant), 161 (WT), parent: 0) was 0 and the response (spectral counts (SC)) (CapRel^SJ46–Flag; replicate2, 40 min after infection, CapRelSJ46 SC 156 (L114P mutant), 138 (WT), parent: 52) was 6.
In the case of Gp57, purified L114P; I115F, the pKd [4] was 4.63.
